B1: auxilin (natural protein)
chain: MKDSENKGASSPDMEPSYGGGLFDMVKGGAGRLFSNLKDNLKDTLKDTSSRVIQSVTSYTKGDLDFTYVTSRIIVMSFPLDNVDIGFRNQVDDIRSFLDSRHLDHYTVYNLSPKSYRTAKFHSRVSECSWPIRQAPSLHNLFAVCRNMYNWLLQNPKNVCVVHCLDGRAASSILVGAMFIFCNLYSTPGPAIRLLYAKRPGIGLSPSHRRYLGYMCDLLADKPYRPHFKPLTIKSITVSPIPFFNKQRNGCRPYCDVLIGETKIYSTCTDFERMKEYRVQDGKIFIPLNITVQGDVVVSMYHLRSTIGSRLQAKVTNTQIFQLQFHTGFIPLDTTVLKFTKPELDACDVPEKYPQLFQVTLDVELQPHDKVIDLTPPWEHYCTKDVNPSILFSSHQEHQDTLALGGQAPIDIPPDNPRHYGQSGFFASLCWQDQKSEKSFCEEDHAALVNQESEQSDDELLTLSSPHGNANGDKPHGVKKPSKKQQEPAAPPPPEDVDLLGLEGSAMSNSFSPPAAPPTNSELLSDLFGGGGAAGPTQAGQSGVEDVFHPSGPASTQSTPRRSATSTSASPTLRVGEGATFDPFGAPSKPSGQDLLGSFLNTSSASSDPFLQPTRSPSPTVHASSTPAVNIQPDVSGGWDWHAKPGGFGMGSKSAATSPTGSSHGTPTHQSKPQTLDPFADLGTLGSSSFASKPTTPTGLGGGFPPLSSPQKASPQPMGGGWQQGGAYNWQQPQPKPQPSMPHSSPQNRPNYNVSFSAMPGGQNERGKGSSNLEGKQKAADFEDLLSGQGFNAHKDKKGPRTIAEMRKEEMAKEMDPEKLKILEWIEGKERNIRALLSTMHTVLWAGETKWKPVGMADLVTPEQVKKVYRKAVLVVHPDKATGQPYEQYAKMIFMELNDAWSEFENQGQKPLY
B2: AP180 (natural protein)
chain: MSGQTLTDRIAAAQYSVTGSAVARAVCKATTHEVMGPKKKHLDYLIQATNETNVNIPQMADTLFERATNSSWVVVFKALVTTHHLMVHGNERFIQYLASRNTLFNLSNFLDKSGSHGYDMSTFIRRYSRYLNEKAFSYRQMAFDFARVKKGADGVMRTMAPEKLLKSMPILQGQIDALLEFDVHPNELTNGVINAAFMLLFKDLIKLFACYNDGVINLLEKFFEMKKGQCKDALEIYKRFLTRMTRVSEFLKVAEQVGIDKGDIPDLTQAPSSLMETLEQHLNTLEGKKPGNNEGSGAPSPLSKSSPATTVTSPNSTPAKTIDTSPPVDLFATASAAVPVSTSKPSSDLLDLQPDFSSGGAAAAAAPAPPPPAGGATAWGDLLGEDSLAALSSVPSEAQISDPFAPEPTPPTTTAEIATASASASTTTTVTAVTAEVDLFGDAFAASPGEAPAASEGAAAPATPTPVAAALDACSGNDPFAPSEGSAEAAPELDLFAMKPPETSVPVVTPTASTAPPVPATAPSPAPAVAAAAAATTAATAAATTTTTTSAATATTAPPALDIFGDLFESTPEVAAAPKPDAAPSIDLFSTDAFSSPPQGASPVPESSLTADLLSVDAFAAPSPATTASPAKVDSSGVIDLFGDAFGSSASEPQPASQAASSSSASADLLAGFGGSFMAPSPSPVTPAQNNLLQPNFEAAFGTTPSTSSSSSFDPSVFDGLGDLLMPTMAPAGQPAPVSMVPPSPAMAASKALGSDLDSSLASLVGNLGISGTTTKKGDLQWNAGEKKLTGGANWQPKVAPATWSAGVPPSAPLQGAVPPTSSVPPVAGAPSVGQPGAGFGMPPAGTGMPMMPQQPVMFAQPMMRPPFGAAAVPGTQLSPSPTPASQSPKKPPAKDPLADLNIKDFL
B3: EPS15 (natural protein)
chain: MAAAAQLSLTQLSSGNPVYEKYYRQVDTGNTGRVLASDAAAFLKKSGLPDLILGKIWDLADTDGKGILNKQEFFVALRLVACAQNGLEVSLSSLNLAVPPPRFHDTSSPLLISGTSAAELPWAVKPEDKAKYDAIFDSLSPVNGFLSGDKVKPVLLNSKLPVDILGRVWELSDIDHDGMLDRDEFAVAMFLVYCALEKEPVPMSLPPALVPPSKRKTWVVSPAEKAKYDEIFLKTDKDMDGFVSGLEVREIFLKTGLPSTLLAHIWSLCDTKDCGKLSKDQFALAFHLISQKLIKGIDPPHVLTPEMIPPSDRASLQKNIIGSSPVADFSAIKELDTLNNEIVDLQREKNNVEQDLKEKEDTIKQRTSEVQDLQDEVQRENTNLQKLQAQKQQVQELLDELDEQKAQLEEQLKEVRKKCAEEAQLISSLKAELTSQESQISTYEEELAKAREELSRLQQETAELEESVESGKAQLEPLQQHLQDSQQEISSMQMKLMEMKDLENHNSQLNWCSSPHSILVNGATDYCSLSTSSSETANLNEHVEGQSNLESEPIHQESPARSSPELLPSGVTDENEVTTAVTEKVCSELDNNRHSKEEDPFNVDSSSLTGPVADTNLDFFQSDPFVGSDPFKDDPFGKIDPFGGDPFKGSDPFASDCFFRQSTDPFATSSTDPFSAANNSSITSVETLKHNDPFAPGGTVVAASDSATDPFASVFGNESFGGGFADFSTLSKVNNEDPFRSATSSSVSNVVITKNVFEETSVKSEDEPPALPPKIGTPTRPCPLPPGKRSINKLDSPDPFKLNDPFQPFPGNDSPKEKDPEIFCDPFTSATTTTNKEADPSNFANFSAYPSEEDMIEWAKRESEREEEQRLARLNQQEQEDLELAIALSKSEISEA

target: GST-fused human AP-2 alpha-C (AP2A2) appendage domain, Ser923Gly (human) (UniProt O94973); test: pull-down
Sequence of UniProt O94973 (O94973 whole entry S923G, the tested form may be a part): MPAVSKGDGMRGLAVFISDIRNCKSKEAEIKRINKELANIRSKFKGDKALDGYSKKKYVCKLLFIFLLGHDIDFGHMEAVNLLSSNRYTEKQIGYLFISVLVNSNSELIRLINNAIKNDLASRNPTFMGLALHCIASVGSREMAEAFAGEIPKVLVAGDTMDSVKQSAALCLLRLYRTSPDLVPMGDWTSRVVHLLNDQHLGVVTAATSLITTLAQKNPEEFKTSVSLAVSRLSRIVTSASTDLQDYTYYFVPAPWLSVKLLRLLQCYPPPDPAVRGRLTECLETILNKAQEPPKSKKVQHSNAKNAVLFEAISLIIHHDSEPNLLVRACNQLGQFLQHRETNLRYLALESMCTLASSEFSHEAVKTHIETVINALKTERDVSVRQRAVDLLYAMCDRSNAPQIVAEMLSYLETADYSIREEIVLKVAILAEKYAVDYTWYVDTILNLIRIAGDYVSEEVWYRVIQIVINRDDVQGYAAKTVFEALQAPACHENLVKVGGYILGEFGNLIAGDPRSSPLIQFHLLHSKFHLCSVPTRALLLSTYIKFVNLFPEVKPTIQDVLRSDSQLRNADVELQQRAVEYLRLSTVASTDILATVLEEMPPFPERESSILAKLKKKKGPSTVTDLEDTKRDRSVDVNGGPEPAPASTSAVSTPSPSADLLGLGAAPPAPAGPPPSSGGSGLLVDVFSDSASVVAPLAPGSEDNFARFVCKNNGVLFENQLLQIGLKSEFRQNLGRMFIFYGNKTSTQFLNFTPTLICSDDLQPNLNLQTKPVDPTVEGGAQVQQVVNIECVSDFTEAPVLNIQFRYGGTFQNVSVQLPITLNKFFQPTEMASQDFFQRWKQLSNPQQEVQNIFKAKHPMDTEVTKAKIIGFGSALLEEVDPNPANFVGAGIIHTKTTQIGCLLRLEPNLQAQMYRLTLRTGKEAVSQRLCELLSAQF

Compared with “amphiphysin (from UniProt P49418 1-695) (natural protein)”, B1 is higher in percent reduction of pulled-down signal against wildtype AP2A2-ear: 20% for the first, 70% for the second.

Compared with B2, B3 is lower in percent reduction of pulled-down signal against wildtype AP2A2-ear: 80% for the first, 30% for the second.

— PMC11209852
